In PMC2693666 (PLoS ONE, 2009):

B1: recMoPrP(89–230) (domain or fragment)
chain: not shown
B2: recMoPrP(23–230) (natural protein)
chain: not shown
B3: recMoDpl(26–155) (domain or fragment, mouse, UniProt Q9QUG3 26-155, looked up)
chain: ARGIKHRFKWNRKVLPSSGGQITEARVAENRPGAFIKQGRKLDIDFGAEGNRYYAANYWQFPDGIYYEGCSEANVTKEMLVTSCVNATQAANQAEFSREKQDSKLHQRVLWRLIKEICSAKHCDFWLERG
notes: also called recDpl

How the values were obtained:
Test in all cases: SPR; Biacore 2000, 20°C; […] (10 mM HEPES, 150 mM NaCl), pH 7.4, 20 µL/min; 1:1 (Langmuir) model
Conditions in all cases: both partners purified
recMoDpl(26–155) = target: B3
recMoPrP(89–230) = target: B1
recMoPrP(23–230) = target: B2

Binder	stoichiometry N (recMoDpl(26–155))	Kd (recMoPrP(89–230)) [nM]	koff (recMoPrP(89–230)) [s⁻¹]	kon (recMoPrP(89–230)) [M⁻¹ s⁻¹]	Kd (recMoPrP(23–230)) [nM]	koff (recMoPrP(23–230)) [s⁻¹]	kon (recMoPrP(23–230)) [M⁻¹ s⁻¹]
B1	1						
B2	1						
B3		100	0.00087	8400	11	0.0013	120000
